# Laboratory results published in patent US20170044259A1 (CYTOMX THERAPEUTICS, published 2017).
# Substitutions are numbered along the chain they refer to.
# B1: PD-1 1.5 PD009 2001 (antibody, human IgG4 S228P, kappa)
# heavy: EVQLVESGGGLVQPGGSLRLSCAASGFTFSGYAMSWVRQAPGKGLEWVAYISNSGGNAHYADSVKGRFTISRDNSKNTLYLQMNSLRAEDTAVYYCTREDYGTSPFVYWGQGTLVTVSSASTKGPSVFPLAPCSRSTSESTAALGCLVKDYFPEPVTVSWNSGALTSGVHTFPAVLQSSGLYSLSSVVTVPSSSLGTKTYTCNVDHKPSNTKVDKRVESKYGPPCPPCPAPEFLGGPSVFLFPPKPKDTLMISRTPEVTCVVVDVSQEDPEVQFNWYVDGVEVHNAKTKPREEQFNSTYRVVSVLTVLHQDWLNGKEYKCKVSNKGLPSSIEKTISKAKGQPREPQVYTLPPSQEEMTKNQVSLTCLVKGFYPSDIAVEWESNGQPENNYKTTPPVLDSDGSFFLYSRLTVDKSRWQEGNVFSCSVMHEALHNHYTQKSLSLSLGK
# light: QGQSGQGAPRTCYTYQCSSFYTGGGSSGGSISSGLLSGRSDNHGGGSDIQLTQSPSSLSASVGDRVTITCRASESVDAYGISFMNWFQQKPGKAPKLLIYAASNQGSGVPSRFSGSGSGTDFTLTISSMQPEDFATYYCQQSKDVPWTFGQGTKLEIKRTVAAPSVFIFPPSDEQLKSGTASVVCLLNNFYPREAKVQWKVDNALQSGNSQESVTEQDSKDSTYSLSSTLTLSKADYEKHKVYACEVTHQGLSSPVTKSFNRGEC
# B2: PD-1 1.5 PD012 2001 (antibody, human IgG4 S228P, kappa)
# heavy: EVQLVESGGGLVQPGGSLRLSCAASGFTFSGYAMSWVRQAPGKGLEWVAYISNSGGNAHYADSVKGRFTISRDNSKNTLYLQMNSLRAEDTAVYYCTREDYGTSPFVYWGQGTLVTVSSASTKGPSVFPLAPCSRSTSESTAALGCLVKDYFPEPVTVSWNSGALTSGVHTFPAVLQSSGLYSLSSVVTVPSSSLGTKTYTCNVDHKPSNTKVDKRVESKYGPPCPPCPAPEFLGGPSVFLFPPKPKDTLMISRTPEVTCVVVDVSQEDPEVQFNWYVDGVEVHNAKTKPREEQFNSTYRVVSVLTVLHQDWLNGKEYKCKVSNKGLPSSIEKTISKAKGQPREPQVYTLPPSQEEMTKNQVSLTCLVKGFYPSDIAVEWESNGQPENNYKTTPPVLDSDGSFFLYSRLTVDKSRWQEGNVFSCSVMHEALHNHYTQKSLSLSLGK
# light: QGQSGQGNWLDCQFYSECSVYGGGGSSGGSISSGLLSGRSDNHGGGSDIQLTQSPSSLSASVGDRVTITCRASESVDAYGISFMNWFQQKPGKAPKLLIYAASNQGSGVPSRFSGSGSGTDFTLTISSMQPEDFATYYCQQSKDVPWTFGQGTKLEIKRTVAAPSVFIFPPSDEQLKSGTASVVCLLNNFYPREAKVQWKVDNALQSGNSQESVTEQDSKDSTYSLSSTLTLSKADYEKHKVYACEVTHQGLSSPVTKSFNRGEC
# notes: also called PD-12
# B3: PD-1 1.5 PD019 2001 (antibody, human IgG4 S228P, kappa)
# heavy: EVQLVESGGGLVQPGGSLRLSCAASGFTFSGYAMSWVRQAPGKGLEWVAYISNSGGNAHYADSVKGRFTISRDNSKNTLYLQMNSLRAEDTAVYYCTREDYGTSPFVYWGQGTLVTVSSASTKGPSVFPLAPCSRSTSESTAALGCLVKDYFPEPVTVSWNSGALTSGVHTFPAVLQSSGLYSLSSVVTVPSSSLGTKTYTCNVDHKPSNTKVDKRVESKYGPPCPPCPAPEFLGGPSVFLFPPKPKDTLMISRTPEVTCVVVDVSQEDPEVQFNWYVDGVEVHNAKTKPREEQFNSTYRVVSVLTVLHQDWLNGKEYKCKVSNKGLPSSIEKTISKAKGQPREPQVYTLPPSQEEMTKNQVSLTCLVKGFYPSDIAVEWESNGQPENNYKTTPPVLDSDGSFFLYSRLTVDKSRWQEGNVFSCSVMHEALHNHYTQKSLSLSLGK
# light: QGQSGQGPCDQNPYFYPYVCHAGGGSSGGSISSGLLSGRSDNHGGGSDIQLTQSPSSLSASVGDRVTITCRASESVDAYGISFMNWFQQKPGKAPKLLIYAASNQGSGVPSRFSGSGSGTDFTLTISSMQPEDFATYYCQQSKDVPWTFGQGTKLEIKRTVAAPSVFIFPPSDEQLKSGTASVVCLLNNFYPREAKVQWKVDNALQSGNSQESVTEQDSKDSTYSLSSTLTLSKADYEKHKVYACEVTHQGLSSPVTKSFNRGEC
# notes: also called PD-19
# B4: Bb2 (antibody, human IgG4 S228P, kappa, V domains shown)
# VH: QVQLVQSGAEVKKPGASVKMSCKASGYTFTDYYMDWVRQAPGQGLEWIGYIYPKNGGSSYAQKFQGRATLTVDKSTSTAYMELSSLRSEDTAVYYCARKVVATDYWGQGTLLTVSS
# VL: DIQMTQSPSSLSASVGDRVTMTCKSSQSLLYSSNQKNYLAWYQQKPGKAPKLLIFWASIRESGVPSRFSGSGSGTDFTLTISSVQPEDFATYYCQQSDSYPWTFGQGTKLEIKR
# notes: humanized, full length hIgG4/hKappa
# B5: A1.0 (antibody, human IgG4 S228P, kappa, V domains shown)
# VH: EVQLVESGGGLVQPGGSLRLSCAASGFTFSGYAMSWVRQAPGKGLEWVAYISNSGGNAHYADSVKGRFTISRDNSKNTLYLQMNSLRAEDTAVYYCTREDYGTSPFVYWGQGTLVTVSS
# VL: DIQLTQSPSSLSASVGDRVTITCRASESVDNYGISFMNWFQQKPGKAPKLLIYAASNQGSGVPSRFSGSGSGTDFTLTISSMQPEDFATYYCQQSKDVPWTFGQGTKLEIKR
# notes: as for B4
# B6: C1.1 (antibody, human IgG4 S228P, kappa, V domains shown)
# VH: B5 VH with G31N, S54G, N57D, A58T, V64L, I70V, T97A, D100N
# VL: B5 VL with A13V, V19A
# notes: as for B4
# B7: A1.4 (antibody, human IgG4 S228P, kappa)
# heavy: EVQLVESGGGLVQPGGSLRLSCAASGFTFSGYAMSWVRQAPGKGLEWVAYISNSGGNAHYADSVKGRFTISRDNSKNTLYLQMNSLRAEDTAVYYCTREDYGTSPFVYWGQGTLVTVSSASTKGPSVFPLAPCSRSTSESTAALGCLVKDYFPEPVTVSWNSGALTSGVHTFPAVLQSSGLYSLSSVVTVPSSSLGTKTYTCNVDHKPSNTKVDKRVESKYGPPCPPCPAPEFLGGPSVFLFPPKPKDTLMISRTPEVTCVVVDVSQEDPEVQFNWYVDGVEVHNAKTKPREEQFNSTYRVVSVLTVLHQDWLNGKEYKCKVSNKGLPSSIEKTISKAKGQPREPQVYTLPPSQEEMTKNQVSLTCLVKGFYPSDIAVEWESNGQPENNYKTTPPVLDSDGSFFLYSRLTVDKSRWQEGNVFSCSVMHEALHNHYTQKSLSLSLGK
# light: DIQLTQSPSSLSASVGDRVTITCRASESVDSYGISFMNWFQQKPGKAPKLLIYAASNQGSGVPSRFSGSGSGTDFTLTISSMQPEDFATYYCQQSKDVPWTFGQGTKLEIKRTVAAPSVFIFPPSDEQLKSGTASVVCLLNNFYPREAKVQWKVDNALQSGNSQESVTEQDSKDSTYSLSSTLTLSKADYEKHKVYACEVTHQGLSSPVTKSFNRGEC
# notes: humanized, full length hIgG4/hKappa; also called anti-PD-1 A1.4; DyLight-650 A1.4
# B8: A1.6 (antibody, human IgG4 S228P, kappa, V domains shown)
# VH: B5 VH
# VL: B5 VL with N57D
# notes: as for B4
# B9: A1.2 (antibody, human IgG4 S228P, kappa, V domains shown)
# VH: B5 VH
# VL: B5 VL with N31Q
# notes: as for B4
# Target: T1, human PD-1-Fc (R and D systems, Minneapolis, Minn.) (human, UniProt Q15116 25-167)
# T1 construct: bought; also called hPD-1-Fc; hPD-1; not shown: Fc part of the bought fusion
# Test: plate ELISA on human PD-1-Fc; reference A1.5
# Procedure: (§1) Masking efficiencies were evaluated by standard plate ELISA. Briefly, human PD-1-Fc (Rand D systems, Minneapolis, Minn.) was adsorbed to the wells of a 96-well ELISA plate. Purified anti-PD-1 antibodies and activatable antibodies were applied to the plate in serial dilution and allowed to bind. Bound antibody and activatable antibodies were detected with anti-human IgG-HRP conjugate, FAb-specific (Sigma, St Louis, Mo.) and visualized with the chromogenic substrate TMB (Thermo Scientific, Rockford, Ill.). […] Plots were generated in Prizm (Sigma Plot); the data were fit to a model of single site saturation binding, and the equilibrium dissociation constant, Kd, was determined. Masking efficiency was calculated by dividing the Kd for binding of the activatable antibodies by the Kd of the parental antibody.
# T1 sequence (Q15116 25-167 limits assumed): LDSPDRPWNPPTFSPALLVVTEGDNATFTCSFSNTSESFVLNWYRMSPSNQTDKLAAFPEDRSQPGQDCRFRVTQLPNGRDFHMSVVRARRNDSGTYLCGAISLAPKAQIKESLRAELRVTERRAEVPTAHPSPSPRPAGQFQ
row,"ME (masking efficiency, Kd of the activatable antibody divided by Kd of the parental antibody)",Binder
1,2,B1
2,10,B2
3,30,B3

# Target: T1, human PD-1-Fc (R and D systems, …)
# Test: plate ELISA on human PD-1-Fc; apparent KD
# Procedure: as §1
row,Kd [nM],Binder
1,10,B1
2,25,B2
3,93,B3

# Target: T1, human PD-1-Fc (R and D systems, …)
# Test: plate ELISA on human PD-1-Fc; reference A1.5
# Remark: another data set of the same source
# Procedure: as §1
row,Masking Efficiency,Binder
1,6,B1
2,14,B2
3,52,B3

# Target: T1, human PD-1-Fc (R and D systems, …)
# Test: plate ELISA on human PD-1-Fc
row,binding result,Binder
1,binds,B4
2,binds,B5
3,binds,B6
4,binds,B7
5,binds,B8
6,binds,B9
